Values belong to the molecule of their own block, whether it stands above or below them.
Columns and labels:
[1] = molecular target: human Siglec-5 expressed on human primary cells (human) (UniProt O15389); test: flow cytometry, human primary monocytes, secondary antibody only (no primary antibody), background control
[2] = molecular target: human Siglec-5 expressed on human primary cells (human) (UniProt O15389); test: flow cytometry, human primary macrophages, secondary antibody only (no primary antibody), background control
[3] = molecular target: human Siglec-5 expressed on human primary cells (human) (UniProt O15389); test: flow cytometry, human primary neutrophils, secondary antibody only (no primary antibody), background control
[4] = molecular target: human Siglec-5 expressed on human primary cells (human) (UniProt O15389); test: flow cytometry, human primary dendritic cells, secondary antibody only (no primary antibody), background control
[5] = molecular target: human Siglec-5 expressed on human primary cells (human) (UniProt O15389); test: flow cytometry, human primary monocytes, isotype control
[6] = molecular target: human Siglec-5 expressed on human primary cells (human) (UniProt O15389); test: flow cytometry, human primary macrophages, isotype control
[7] = molecular target: human Siglec-5 expressed on human primary cells (human) (UniProt O15389); test: flow cytometry, human primary neutrophils, isotype control
[8] = molecular target: human Siglec-5 expressed on human primary cells (human) (UniProt O15389); test: flow cytometry, human primary dendritic cells, isotype control
[9] = molecular target: T1, Human Siglec 5, Fc chimera (R&D Systems) (human, UniProt O15389 17-434, limits assumed); test: RBC adhesion to plate-bound Siglec-5-Fc, 0.3 ug/ml isotype control, percent of binding without antibody
T1 construct: Bought or recombinant Fc fusion; also called recombinant Siglec-5-Fc; not shown: Fc part
T1 sequence: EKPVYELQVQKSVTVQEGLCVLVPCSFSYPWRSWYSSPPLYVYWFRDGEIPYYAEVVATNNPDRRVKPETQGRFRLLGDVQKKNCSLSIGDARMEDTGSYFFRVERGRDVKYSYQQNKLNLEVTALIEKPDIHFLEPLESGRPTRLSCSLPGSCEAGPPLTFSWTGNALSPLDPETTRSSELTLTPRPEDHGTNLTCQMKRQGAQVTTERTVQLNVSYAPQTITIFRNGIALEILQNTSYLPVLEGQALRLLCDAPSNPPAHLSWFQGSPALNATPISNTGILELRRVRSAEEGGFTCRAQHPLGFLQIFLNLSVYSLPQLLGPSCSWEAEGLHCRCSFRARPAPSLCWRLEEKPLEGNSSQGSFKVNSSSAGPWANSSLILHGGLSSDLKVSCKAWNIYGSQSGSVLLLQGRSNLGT

[10] = molecular target: T1, Human Siglec 5, Fc chimera (R&D Systems); test: RBC adhesion to plate-bound Siglec-5-Fc, 1.0 ug/ml isotype control, percent of binding without antibody
[11] = molecular target: human Siglec-5 expressed on human primary cells (human) (UniProt O15389); test: flow cytometry, human primary monocytes, 10 ug/ml mAb
[12] = molecular target: human Siglec-5 expressed on human primary cells (human) (UniProt O15389); test: flow cytometry, human primary macrophages, 10 ug/ml mAb
[13] = molecular target: human Siglec-5 expressed on human primary cells (human) (UniProt O15389); test: flow cytometry, human primary neutrophils, 10 ug/ml mAb
[14] = molecular target: human Siglec-5 expressed on human primary cells (human) (UniProt O15389); test: flow cytometry, human primary dendritic cells, 10 ug/ml mAb
[15] = molecular target: T1, Human Siglec 5, Fc chimera (R&D Systems); test: RBC adhesion to plate-bound Siglec-5-Fc, 0.3 ug/ml mAb, percent of binding without antibody
[16] = molecular target: T2, human Siglec-5 expressed on human primary cells (human, UniProt O15389 17-551); test: flow cytometry, human primary monocytes, 10 ug/ml mAb
T2 construct: Endogenous receptor on human primary monocytes, dendritic cells, macrophages and neutrophils; also called CD170
T2 sequence: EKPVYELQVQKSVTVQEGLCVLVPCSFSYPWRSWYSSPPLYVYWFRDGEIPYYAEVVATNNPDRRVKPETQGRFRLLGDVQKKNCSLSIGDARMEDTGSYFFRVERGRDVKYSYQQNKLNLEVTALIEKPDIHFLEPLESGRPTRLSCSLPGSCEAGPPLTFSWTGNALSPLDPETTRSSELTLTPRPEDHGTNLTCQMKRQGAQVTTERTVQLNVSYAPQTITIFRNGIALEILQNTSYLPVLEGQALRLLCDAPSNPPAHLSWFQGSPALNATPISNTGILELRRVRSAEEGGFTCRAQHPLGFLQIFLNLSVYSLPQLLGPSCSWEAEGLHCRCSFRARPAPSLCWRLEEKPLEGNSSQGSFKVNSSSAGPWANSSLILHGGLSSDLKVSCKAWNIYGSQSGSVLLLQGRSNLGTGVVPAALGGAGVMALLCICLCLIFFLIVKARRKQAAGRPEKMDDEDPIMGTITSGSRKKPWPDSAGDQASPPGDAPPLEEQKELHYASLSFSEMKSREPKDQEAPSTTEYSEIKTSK
Protocol: (§1) Initial characterization of Siglec-5 antibodies involved determining their ability to bind Siglec-5 expressed on human primary monocytes, human primary macrophages, human primary dendritic cells, and human primary neutrophils. Cells were harvested, plated at 10⁶1m1 in a 96 well plate, and incubated in 100 μl PBS containing 2% FBS, 2 mM EDTA and 10 μg/ml Mab and Fc blocking reagent for 1 hour in ice. […] Cells were washed twice in cold PBS and analyze by flow cytometry on a BD FACS Canto. Data analysis and calculation of MFI values was performed with FlowJo (TreeStar) software version 10.0.7.
(§2) Binding is compared to an isotype control.

[17] = molecular target: T2, human Siglec-5 expressed on human …; test: flow cytometry, human primary macrophages, 10 ug/ml mAb
Protocol: as §1, §2

[18] = molecular target: T2, human Siglec-5 expressed on human …; test: flow cytometry, human primary neutrophils, 10 ug/ml mAb
Protocol: as §1, §2

[19] = molecular target: T2, human Siglec-5 expressed on human …; test: flow cytometry, human primary dendritic cells, 10 ug/ml mAb
Protocol: as §1, §2

[20] = molecular target: T1, Human Siglec 5, Fc chimera (R&D Systems); test: RBC adhesion to plate-bound Siglec-5-Fc, 1.0 ug/ml mAb, percent of binding without antibody
Protocol: Siglec-5 antibodies (0.3 μg/ml or 1.0 μg/ml) were bound for one hour at RT with gentle rocking. After removal of unbound antibody, red blood cells were added to each well at a concentration of 3.0 ×10⁶ cells per ml and incubated at RT for one hour. Unbound RBCs were then carefully washed off 3X with PBS, and water was added to each well for hypotonic lysis of bound RBCs. The plate was transferred to -80° C. for 10 minutes, followed by 37° C. for 15 minutes. Bound RBCs were detected by peroxidase activity, followed by 2N sulfuric acid to stop the reaction.

[21] = molecular target: T3, Histidine-tagged human Siglec-5 (NovoProtein) (human, UniProt O15389 17-434, limits assumed); test: SPR (BiaCore T200, 25 C), mAb captured on anti-mouse IgG, 15 nM His-tagged Siglec-5, single-concentration 1:1 fit
T3 construct: Bought protein; also called Siglec-5-his tagged protein; not shown: histidine tag
T3 sequence: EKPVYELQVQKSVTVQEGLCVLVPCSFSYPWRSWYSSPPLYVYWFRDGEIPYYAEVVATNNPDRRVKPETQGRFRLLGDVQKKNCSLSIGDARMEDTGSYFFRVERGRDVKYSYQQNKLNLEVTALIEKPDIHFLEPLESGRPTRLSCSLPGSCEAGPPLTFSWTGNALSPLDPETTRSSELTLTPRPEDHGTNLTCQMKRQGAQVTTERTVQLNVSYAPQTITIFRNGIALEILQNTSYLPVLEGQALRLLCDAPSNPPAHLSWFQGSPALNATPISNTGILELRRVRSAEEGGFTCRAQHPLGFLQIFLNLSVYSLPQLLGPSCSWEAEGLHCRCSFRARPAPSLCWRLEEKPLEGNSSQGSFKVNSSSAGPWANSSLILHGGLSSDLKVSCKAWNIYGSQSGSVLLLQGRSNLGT

% Positive [1]: 8.2%
MFI [1]: 104
% Positive [2]: 5.4%
MFI [2]: 221
% Positive [3]: 3.42%
MFI [3]: 62.1
% Positive [4]: 2.1%
MFI [4]: 87
Molecule: PE-conjugated secondary antibody

% Positive [5]: 10.7%
MFI [5]: 126
% Positive [6]: 21.9%
MFI [6]: 305
% Positive [7]: 1.3%
MFI [7]: 53.7
% Positive [8]: 6.7%
MFI [8]: 98
Percent RBC Binding to Siglec-5 [9]: 100%
Percent RBC Binding to Siglec-5 [10]: 102%
Molecule: mouse IgG1 isotype control antibody

Percent RBC Binding to Siglec-5 [10]: 94.5%
Molecule: mouse IgG2a isotype control antibody

Percent RBC Binding to Siglec-5 [10]: 94.4%
Molecule: mouse IgG2b isotype control antibody

% Positive [11]: 98.8%
MFI [11]: 463
% Positive [12]: 96.9%
MFI [12]: 806
% Positive [13]: 99.2%
MFI [13]: 383
% Positive [14]: 94.8%
MFI [14]: 641
Percent RBC Binding to Siglec-5 [15]: 41.5%
Molecule: commercially available anti-Siglec-5 antibody, clone 194128 (R&D Systems)

% Positive [16]: 93.2%
MFI [16]: 368
% Positive [17]: 87.8%
MFI [17]: 471
% Positive [18]: 98.6%
MFI [18]: 332
% Positive [19]: 93.9%
MFI [19]: 591
Percent RBC Binding to Siglec-5 [15]: 47.5%
Percent RBC Binding to Siglec-5 [20]: 5.59%
Kd [21]: 0.408 nM
B1: anti-Siglec-5 monoclonal antibody 9A5 (antibody, IgG1, V domains shown)
VH: QVQLQQSGPELVEPGASVKVSCKASGYAFTSYNMYWVKQSHGKSLEWIGYIDPYNGGTYYDQKFKGRATLTVDKSSSTAHMHLNSLTSEDSAVYYCVFFYEYDGFPYWGQGTLVTVSA
VL: DIVLTQSPTLMSASPGEKVTMTCSASSSVSYMYWYQQKPRSSPKPLIYLTSNLASGVPARFSGSGSGTSYSLTISSMEAEDAATYYCQQWSSNPLTFGAGTKLELK
